In patent US20230416726A1 (University of Washington, published 2023):

Biological target: T1, programmed cell death ligand 1 (PD-L1) (UniProt Q9NZQ7 19-239, limits assumed, biotinylated in the yeast display assays)
T1 construct: also called PD-Li
Assay: BLI, max binding signal versus PD-L1 concentration

T1 sequence (Q9NZQ7 19-239 limits assumed): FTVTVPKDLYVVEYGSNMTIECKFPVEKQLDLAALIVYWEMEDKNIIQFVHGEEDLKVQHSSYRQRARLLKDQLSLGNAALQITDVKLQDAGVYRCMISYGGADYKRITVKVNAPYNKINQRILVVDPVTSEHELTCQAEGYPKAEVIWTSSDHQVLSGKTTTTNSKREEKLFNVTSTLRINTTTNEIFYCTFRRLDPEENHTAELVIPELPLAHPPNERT

B1: pdl1_inp_1 (purified from E. coli) (designed binder)
chain: DLEEFFEECLKEAEEVRKEVLEGKARIQIKESVRKEDPEGGTYVCGVISLGPKGGKFHVVFHKEDPEGKEETLARFEFKVEGGKVELLELKSKDPELKKLAEKYAEKLLE
notes: Expressed as a monomer; Tested by BLI; not shown: C-terminal SNAC tag and 6xHis tag from the modified pET29b+ vector
For B1, the Kd was 326 nM.
